Target: T1, AlexaFluor488-labeled human PLCβ3-Δ892 R872A L876A L879A triple mutant (human, UniProt Q01970 10-891, R872A | L876A | L879A)
T1 sequence: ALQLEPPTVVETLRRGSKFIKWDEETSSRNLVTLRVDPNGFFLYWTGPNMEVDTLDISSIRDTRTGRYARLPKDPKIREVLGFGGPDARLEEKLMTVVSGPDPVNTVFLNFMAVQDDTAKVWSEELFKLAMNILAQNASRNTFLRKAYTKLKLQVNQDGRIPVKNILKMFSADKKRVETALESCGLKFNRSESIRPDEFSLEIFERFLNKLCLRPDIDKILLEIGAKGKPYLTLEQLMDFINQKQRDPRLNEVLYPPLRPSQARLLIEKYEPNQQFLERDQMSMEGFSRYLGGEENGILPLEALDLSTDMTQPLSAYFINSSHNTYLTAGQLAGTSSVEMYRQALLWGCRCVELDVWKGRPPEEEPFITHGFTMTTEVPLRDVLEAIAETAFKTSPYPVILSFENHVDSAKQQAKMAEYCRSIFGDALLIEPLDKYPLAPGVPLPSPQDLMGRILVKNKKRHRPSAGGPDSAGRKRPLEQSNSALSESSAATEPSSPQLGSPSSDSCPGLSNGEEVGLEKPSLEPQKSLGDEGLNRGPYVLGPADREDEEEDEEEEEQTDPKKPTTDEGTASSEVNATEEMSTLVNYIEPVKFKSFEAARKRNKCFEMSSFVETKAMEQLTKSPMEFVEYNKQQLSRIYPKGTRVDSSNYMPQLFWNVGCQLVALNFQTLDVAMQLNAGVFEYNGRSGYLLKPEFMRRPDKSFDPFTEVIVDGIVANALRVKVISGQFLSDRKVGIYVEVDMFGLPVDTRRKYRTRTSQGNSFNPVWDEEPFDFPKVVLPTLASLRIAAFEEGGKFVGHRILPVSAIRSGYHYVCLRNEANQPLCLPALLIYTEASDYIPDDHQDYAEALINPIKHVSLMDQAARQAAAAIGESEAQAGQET
Assay: flow cytometry protein interaction assay

B1: Gαi/q chimera (murine Gαq with its N-terminal helix replaced with that of Gαi), biotinylated, AlF4-activated (other)
chain: MGCTLSAEDKAAVERSKMIDRNLREDGEKARRELKLLLLGTGESGKSTFIKQMRIIHGSGYSDEDKRGFTKLVYQNIFTAMQAMIRAMDTLKIPYKYEHNKAHAQLVREVDVEKVSAFENPYVDAIKSLWNDPGIQECYDRRREYQLSDSTKYYLNDLDRVADPSYLPTQQDVLRVRVPTTGIIEYPFDLQSVIFRMVDVGGQRSERRKWIHCFENVTSIMFLVALSEYDQVLVESDNENRMEESKALFRTIITYPWFQNSSVILFLNKKDLLEEKIMYSHLVDYFPEYDGPQRDAQAAREFILKMFVDLNPDSDKIIYSHFTCATDTENIRFVFAAVKDTILQLNLKEYNLV
modifications: biotinylated (sites not given)
A Kd of 20.5 nM was found for B1 in this work.
